In PMC8769934 (Cell Reports, 2022):

B1: N-612-004 Fab (Fab, V domains shown)
VH: EVQLVESGGGLVQPGGSLRLSCAASGFTFSSYYMHWVRQAPGKGLEWVSAISGSGGYTYYADSVKGRFTISRDNSKNTLYLQMNSLRAEDTAVYYCARDRDHAYDWGFDVWGQGTLVTVSS
VL: DIQMTQSPSSLSASVGDRVTITCQASQDISNYLNWYQQKPGKAPKLLIYDASNLETGVPSRFSGSGSGTDFTFTISSLQPEDIATYYCQQWADWPLTFGQGTKVEIK
B2: N-612-004 (IgG1) (antibody, V domains shown)
VH: B1 VH
VL: B1 VL

Assays:
[1] = molecular target: dissociated S1 protomer (SARS-CoV-2, Wuhan-Hu-1, stabilised); assay: cryo-EM structure
[2] = molecular target: recombinant S1 domain containing B.1.1.7 mutations (SARS-CoV-2 B.1.1.7 (Alpha), strain); assay: BLI

Row | Binder | binding result [1] | fold reduction of binding affinity against S1 [2] [fold]
1 | B1 | binds | –
2 | B2 | – | ~3
